Among the data in article PMC6954390, “Negative cooperativity between Gemin2 and RNA provides insights into RNA selection and the SMN complex's release in snRNP assembly” are binding result and binding signal values, retold here.

Data set [1] addresses T1, SmD1s (Sm fold);SmD2;SmF;SmE;SmG;SmD3 (Sm fold);SmB (Sm fold) (human;human;human;human;human;human;huma …, UniProt P62314;P62316;P62306;P62304;P62308;P62318;P14678 …, del83-119||||||). Description: GFC/SDS-PAGE; 7SΔN + SmD3/B input; complete core, Gemin2ΔN39/SMNGe2BD released; EMSA: 20 mM Tris-HCl pH 8.0, 250 mM NaCl, 2 mM MgCl2, 1 mM EDTA, 1 mM DTT, 37 C 40 min, RNA 50 pM and complex 2.5-10 pM as printed; GFC assembly assay conditions not in the material. Conditions: protein: recombinant;recombinant;recombinant;recombinant;recombinant;recombinant;recombinant; copies: 1;1;1;1;1;1;1; stem-loops flank the Sm site.

Data set [2] concerns the target T1, SmD1s (Sm fold);SmD2;SmF;SmE;SmG;SmD3 …. In words: GFC/SDS-PAGE; 7SΔN + SmD3/B input; core formation to completion; EMSA: 20 mM Tris-HCl pH 8.0, 250 mM NaCl, 2 mM MgCl2, 1 mM EDTA, 1 mM DTT, 37 C 40 min, RNA 50 pM and complex 2.5-10 pM as printed; GFC assembly assay conditions not in the material. Particulars: protein: recombinant;recombinant;recombinant;recombinant;recombinant;recombinant;recombinant; copies: 1;1;1;1;1;1;1; stem-loops; 3 nt spacer 5' of Sm site.

Data set [3] addresses T2, SmD1s (Sm fold);SmD2;SmF;SmE;SmG;Gemin2ΔN39;SMNGe2BD (human;human;human;human;human;human;huma …, UniProt P62314;P62316;P62306;P62304;P62308;O14893;Q16637 …, del83-119|||||del1-39|). In words: EMSA; 7SΔN; Sm subcore formed; EMSA: 20 mM Tris-HCl pH 8.0, 250 mM NaCl, 2 mM MgCl2, 1 mM EDTA, 1 mM DTT, 37 C 40 min, RNA 50 pM and complex 2.5-10 pM as printed; GFC assembly assay conditions not in the material. Conditions: protein: recombinant;recombinant;recombinant;recombinant;recombinant;recombinant;recombinant; copies: 1;1;1;1;1;1;1; 5' and 3' stem-loops flank the Sm site.

In data set [4] the target is T2, SmD1s (Sm …). In words: GFC/SDS-PAGE; 7SΔN; EMSA: 20 mM Tris-HCl pH 8.0, 250 mM NaCl, 2 mM MgCl2, 1 mM EDTA, 1 mM DTT, 37 C 40 min, RNA 50 pM and complex 2.5-10 pM as printed; GFC assembly assay conditions not in the material. Particulars: protein: recombinant;recombinant;recombinant;recombinant;recombinant;recombinant;recombinant, copies: 1;1;1;1;1;1;1.
Data set [5] has as its target T2, SmD1s (Sm …). Description: GFC; 7SΔN; EMSA: 20 mM Tris-HCl pH 8.0, 250 mM NaCl, 2 mM MgCl2, 1 mM EDTA, 1 mM DTT, 37 C 40 min, RNA 50 pM and complex 2.5-10 pM as printed; GFC assembly assay conditions not in the material. Particulars: protein: recombinant;recombinant;recombinant;recombinant;recombinant;recombinant;recombinant; copies: 1;1;1;1;1;1;1; single-stranded.

The target of data set [6] is T3, SmD1;SmD2;SmF;SmE;SmG (human;human;human;human;human, UniProt P62314;P62316;P62306;P62304;P62308 1-119;1-118;1-86;1-92;1-76, ||||). Description: GFC; 5Sm without Gemin2; EMSA: 20 mM Tris-HCl pH 8.0, 250 mM NaCl, 2 mM MgCl2, 1 mM EDTA, 1 mM DTT, 37 C 40 min, RNA 50 pM and complex 2.5-10 pM as printed; GFC assembly assay conditions not in the material. Particulars: protein: recombinant;recombinant;recombinant;recombinant;recombinant, copies: 1;1;1;1;1.

The target of data set [7] is T3, SmD1;SmD2;SmF;SmE;SmG. In words: GFC/SDS-PAGE; 5Sm without Gemin2; EMSA: 20 mM Tris-HCl pH 8.0, 250 mM NaCl, 2 mM MgCl2, 1 mM EDTA, 1 mM DTT, 37 C 40 min, RNA 50 pM and complex 2.5-10 pM as printed; GFC assembly assay conditions not in the material. Conditions: protein: recombinant;recombinant;recombinant;recombinant;recombinant; copies: 1;1;1;1;1.
The target of data set [8] is T2, SmD1s (Sm …). Description: GFC/SDS-PAGE; 7SΔN; Gemin2 starts to be released; EMSA: 20 mM Tris-HCl pH 8.0, 250 mM NaCl, 2 mM MgCl2, 1 mM EDTA, 1 mM DTT, 37 C 40 min, RNA 50 pM and complex 2.5-10 pM as printed; GFC assembly assay conditions not in the material. Particulars: protein: recombinant;recombinant;recombinant;recombinant;recombinant;recombinant;recombinant; copies: 1;1;1;1;1;1;1; 3' stem-loop.

B1: flU4 (structured_RNA)
RNA: GGGCAGCUUUGCGCAGUGGCAGUAUCGUAGCCAAUGAGGUCUAUCCGAGGCGCGAUUAUUGCUAAUUGAAAACUUUUCCCAAUACCCCGCCGUGACGACUUGCAAUAUAGUCGGCACUGGCAAUUUUUGACAGUCUCUACGGAGACUG
As to B1, the binding result in data set [1] is given as “binds”.

B2: flU4-spacer (structured_RNA)
RNA: GGGCAGCUUUGCGCAGUGGCAGUAUCGUAGCCAAUGAGGUCUAUCCGAGGCGCGAUUAUUGCUAAUUGAAAACUUUUCCCAAUACCCCGCCGUGACGACUUGCAAUAUAGUCGGCACUCCGAAUUUUUGACAGUCUCUACGGAGACUG
Turning to B2, the binding result in data set [2] is recorded as “binds”.

B3: U4 (structured_RNA)
RNA: GGGAAUUGAAAACUUUUCCCAAUACCCCGCCGUGACGACUUGCAAUAUAGUCGGCACUGGCAAUUUUUGACAGUCUCUACGGAGACUG
Turning to B3, the binding signal in the data set with SmD1s (Sm …) [3] was about 2 fold vs 7S.

B4: U4ΔSm (structured_RNA)
RNA: GGGAAUUGAAAACUUUUCCCAAUACCCCGCCGUGACGACUUGCAAUAUAGUCGGCACUGGCAACCCCCGACAGUCUCUACGGAGACUG
On to B4, for which the binding result with SmD1s (Sm …) [4] (5' and 3' stem-loops) is “no binding”.

B5: U4-3'Δ (structured_RNA)
RNA: GGGAAUUGAAAACUUUUCCCAAUACCCCGCCGUGACGACUUGCAAUAUAGUCGGCACUGGCAAUUUUUGAC
For the molecule B5, the binding result in the data set with SmD1s (Sm …) [4] (5' stem-loop) is “no binding”. GGCAAUUUUUGACAGUCUCUACGCUCUGAC (ssRNA) [U4-5'Δ-3'ss]: the binding result with SmD1s (Sm …) [5] is on record as “binds”. Regarding GGCAAUUUUUGACAGUCUCUACGGAGACUG (structured_RNA) [U4-5'Δ], the binding result with SmD1;SmD2;SmF;SmE;SmG [6] (3' stem-loop) is “binds”. For the molecule AAUUUUUGA (ssRNA) [9nt Sm site], the binding result in the data set with SmD1;SmD2;SmF;SmE;SmG [6] (single-stranded) was “binds”. In the case of GGGAAUUGAAAACUUUUCCCAAUACCCCAAUUUUUGA (ssRNA) [3'Sm], the binding result with SmD1;SmD2;SmF;SmE;SmG [7] is on record as “binds”; with SmD1s (Sm …) [4], “no binding”.

B6: U4-5'ss (structured_RNA)
RNA: GGGAAUUGAAAACUUUUCCCAAUACCCCAAUUUUUGACAGUCUCUACGGAGACUG
As for B6, the binding result with SmD1s (Sm …) [8] and in the data set with SmD1;SmD2;SmF;SmE;SmG [6] (3' stem-loop) was “binds” throughout.
